Experimental data as given in article PMC10397247.

Assays:
Experiment in all cases: two-hybrid library CCNG1;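 note: natural log of median RNA to DNA barcode read ratio; higher means stronger binding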
4H3162-bA = target: T1, 4H3162-bA
T1 chain: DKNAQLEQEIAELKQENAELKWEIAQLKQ

4H3175-bA = target: T2, 4H3175-bA
T2 chain: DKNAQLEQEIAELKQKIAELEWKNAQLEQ

4H3277-bA = target: T3, 4H3277-bA
T3 chain: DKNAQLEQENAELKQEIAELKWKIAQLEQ

4H3298-bA = target: T4, 4H3298-bA
T4 chain: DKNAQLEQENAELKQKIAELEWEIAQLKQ

4H3462-bA = target: T5, 4H3462-bA
T5 chain: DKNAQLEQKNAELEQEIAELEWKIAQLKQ

4H348-bA = target: T6, 4H348-bA
T6 chain: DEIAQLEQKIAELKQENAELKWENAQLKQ

4H3497-bA = target: T7, 4H3497-bA
T7 chain: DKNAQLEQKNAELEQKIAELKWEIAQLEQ

4H3613-bA = target: T8, 4H3613-bA
T8 chain: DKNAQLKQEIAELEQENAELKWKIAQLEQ

4H3628-bA = target: T9, 4H3628-bA
T9 chain: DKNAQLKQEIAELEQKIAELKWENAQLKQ

4H3631-bA = target: T10, 4H3631-bA
T10 chain: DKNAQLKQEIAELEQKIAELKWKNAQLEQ

4H3926-bA = target: T11, 4H3926-bA
T11 chain: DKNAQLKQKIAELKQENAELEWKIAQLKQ

4H591-bA = target: T12, 4H591-bA
T12 chain: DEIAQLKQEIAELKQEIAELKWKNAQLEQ

4H626-bA = target: T13, 4H626-bA
T13 chain: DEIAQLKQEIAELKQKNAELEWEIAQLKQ

4H906-bA = target: T14, 4H906-bA
T14 chain: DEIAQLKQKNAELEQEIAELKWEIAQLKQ

P10A-bS = target: T15, P10A-bS
T15 chain: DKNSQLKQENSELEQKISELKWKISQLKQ

P2bHq = target: T16, P2bHq
T16 chain: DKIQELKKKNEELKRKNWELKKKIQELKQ

4H121-bN = target: T17, 4H121-bN
T17 chain: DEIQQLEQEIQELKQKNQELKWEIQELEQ

4H182-bN = target: T18, 4H182-bN
T18 chain: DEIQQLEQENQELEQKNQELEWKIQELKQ

4H2134-bN = target: T19, 4H2134-bN
T19 chain: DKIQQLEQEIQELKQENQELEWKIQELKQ

4H2143-bN = target: T20, 4H2143-bN
T20 chain: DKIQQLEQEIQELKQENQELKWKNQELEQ

4H2223-bN = target: T21, 4H2223-bN
T21 chain: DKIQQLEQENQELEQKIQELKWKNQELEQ

4H2438-bN = target: T22, 4H2438-bN
T22 chain: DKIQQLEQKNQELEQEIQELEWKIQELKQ

4H2473-bN = target: T23, 4H2473-bN
T23 chain: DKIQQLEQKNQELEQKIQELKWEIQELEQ

4H2503-bN = target: T24, 4H2503-bN
T24 chain: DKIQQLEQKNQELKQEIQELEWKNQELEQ

4H2588-bN = target: T25, 4H2588-bN
T25 chain: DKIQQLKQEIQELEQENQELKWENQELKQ

4H2692-bN = target: T26, 4H2692-bN
T26 chain: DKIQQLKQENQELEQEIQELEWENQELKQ

4H2717-bN = target: T27, 4H2717-bN
T27 chain: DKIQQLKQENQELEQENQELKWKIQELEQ

4H2839-bN = target: T28, 4H2839-bN
T28 chain: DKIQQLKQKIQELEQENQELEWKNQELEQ

4H2915-bN = target: T29, 4H2915-bN
T29 chain: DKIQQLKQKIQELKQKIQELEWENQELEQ

4H3057-bN = target: T30, 4H3057-bN
T30 chain: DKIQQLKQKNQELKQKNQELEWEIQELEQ

4H319-bN = target: T31, 4H319-bN
T31 chain: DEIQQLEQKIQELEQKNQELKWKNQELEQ

4H3277-bN = target: T32, 4H3277-bN
T32 chain: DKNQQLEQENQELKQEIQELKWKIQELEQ

4H348-bN = target: T33, 4H348-bN
T33 chain: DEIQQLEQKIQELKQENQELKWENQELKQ

4H3974-bA = target: T34, 4H3974-bA
T34 chain: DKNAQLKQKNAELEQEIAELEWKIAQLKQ

4H40-bN = target: T35, 4H40-bN
T35 chain: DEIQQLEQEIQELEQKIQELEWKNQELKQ

4H477-bN = target: T36, 4H477-bN
T36 chain: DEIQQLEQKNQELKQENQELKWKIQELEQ

4H492-bN = target: T37, 4H492-bN
T37 chain: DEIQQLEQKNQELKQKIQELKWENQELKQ

4H741-bN = target: T38, 4H741-bN
T38 chain: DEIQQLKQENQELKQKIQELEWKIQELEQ

B1: 4H3162-bA (peptide)
chain: DKNAQLEQEIAELKQENAELKWEIAQLKQ
- interaction score (4H3162-bA): 1.11
- interaction score (4H3175-bA): -0.314
- interaction score (4H3277-bA): -0.654
- interaction score (4H3298-bA): -0.43
- interaction score (4H3462-bA): -0.481
- interaction score (4H348-bA): -2.08
- interaction score (4H3497-bA): -0.885
- interaction score (4H3613-bA): 0.452
- interaction score (4H3628-bA): -0.274
- interaction score (4H3631-bA): -1.48
- interaction score (4H3926-bA): 1.8
- interaction score (4H591-bA): -1.2
- interaction score (4H626-bA): -0.331
- interaction score (4H906-bA): -1.01
- interaction score (P10A-bS): -0.255
- interaction score (P2bHq): -0.679

B2: 4H121-bN (peptide)
chain: DEIQQLEQEIQELKQKNQELKWEIQELEQ
- interaction score (4H121-bN): -0.707
- interaction score (4H182-bN): -0.748
- interaction score (4H2134-bN): 1.52
- interaction score (4H2143-bN): -0.718
- interaction score (4H2223-bN): -0.986
- interaction score (4H2438-bN): 1.48
- interaction score (4H2473-bN): -0.436
- interaction score (4H2503-bN): -1.29
- interaction score (4H2588-bN): -0.5
- interaction score (4H2692-bN): -1.02
- interaction score (4H2717-bN): -0.302
- interaction score (4H2839-bN): -0.184
- interaction score (4H2915-bN): -0.211
- interaction score (4H3057-bN): -1.3
- interaction score (4H319-bN): -1.04
- interaction score (4H3277-bN): -1.33
- interaction score (4H348-bN): -0.398
- interaction score (4H3974-bA): 1.19
- interaction score (4H40-bN): -0.563
- interaction score (4H477-bN): -1.35
- interaction score (4H492-bN): -1.42
- interaction score (4H741-bN): -1.39
